The source of these data is PMC7792996, “Crystal structure of death-associated protein kinase 1 in complex with the dietary compound resveratrol” (IUCrJ, 2021).

Substrate in the data set: Nc1ncnc2c1ncn2[C@@H]1O[C@H](COP(=O)(O)OP(=O)(O)OP(=O)(O)O)[C@@H](O)[C@H]1O
Briefly: intrinsic ATPase kinetics by malachite green assay (Km). Format: biochemical, Homo sapiens. Conditions: Mg2+ ([…] MgCl2 in the assay) ATP-binding site.

B1: Death-associated protein kinase 1 (DAPK1) (Homo sapiens) (protein)
chain: MTVFRQENVDDYYDTGEELGSGQFAVVKKCREKSTGLQYAAKFIKKRRTKSSRRGVSREDIEREVSILKEIQHPNVITLHEVYENKTDVILILELVAGGELFDFLAEKESLTEEEATEFLKQILNGVYYLHSLQIAHFDLKPENIMLLDRNVPKPRIKIIDFGLAHKIDFGNEFKNIFGTPEFVAPEIVNYEPLGLEADMWSIGVITYILLSGASPFLGDTKQETLANVSAVNYEFEDEYFSNTSALAKDFIRRLLVKDPKKRMTIQDSLQHPWIKPKDTQQALS
notes: catalytic domain, residues 1–285
Consider B1, for which the Km (in general, the substrate concentration at which the rate is half of its maximum) is 21 ± 2.4 µM; the kcat (usually the maximal rate divided by the concentration of active sites) is 0.012 ± 8.5e-05 s⁻¹; the kcat/Km (usually the second-order rate constant that governs catalysis at low substrate concentration) is 733 ± 71.7 M⁻¹ s⁻¹.
